Data: patent US20200231630A1

Legend:
[1] = biological target: rsH14WIv2 monomeric HA1 head; assay: BLI, Fab and monomeric HA head
[2] = biological target: rsH14WIv1 monomeric HA1 head; assay: BLI, Fab and monomeric HA head
[3] = biological target: rsH14WIv2 monomeric HA1 head; assay: BLI, Fab on Ni-NTA sensor, monomeric HA head in solution
[4] = biological target: rsH4NBv3 monomeric HA1 head; assay: as above
[5] = biological target: rsH14WIv1 monomeric HA1 head; assay: as above
[6] = biological target: H4N6 A/America black duck/New Brunswick/00464/2010 hemagglutinin, monomeric HA1 head (Influenza A virus H4N6 A/America black duck/New Brunswick/00464/2010); assay: as above
[7] = biological target: rsH4NBv1 monomeric HA1 head; assay: as above
[8] = biological target: H14N6 A/mallard/Wisconsin/10OS3941/2010 hemagglutinin, monomeric HA1 head (Influenza A virus H14N6 A/mallard/Wisconsin/10OS3941/2010); assay: as above
[9] = biological target: H1 A/Solomon Islands/3/2006 hemagglutinin, monomeric HA1 head (Influenza A virus H1N1 A/Solomon Islands/3/2006) (UniProt B4URD6); assay: as above

Row | Substance | fold tighter binding than wildtype H1 SI-06 [1] [fold] | fold KD greater than wildtype H1 SI-06 [2] [fold] | Kd [3] [nM] | Kd [4] [nM] | Kd [5] [nM] | Kd [6] [nM] | Kd [7] [nM] | Kd [8] [nM] | Kd [9] [nM]
1 | C05 Fab | > 10 | 1.3 | 65 | 340 | 1400 | > 100000 | > 100000 | > 100000 | 1100
2 | CH67 Fab |  | 17 | 310 | 1600 | 9500 | > 100000 | > 100000 | > 100000 | 570
